{"source": "paper PMC3293257", "target": "FBF-1/CSR-1 heterodimer (GST-FBF-1 with His6-CSR-1(MID-PIWI)) (C. elegans) (UniProt Q9N5M6)", "assay": "pull-down", "data": [{"substance": "Recombinant EFT-3 (natural protein)", "values": [{"measurement": "stoichiometry N", "result": 1}]}]}
